From patent US20250277038A1 come the findings set out here.

As usually defined, the Kd is the constant that tells how readily two partners part at equilibrium. As a reminder, the koff is the first-order rate constant of dissociation. As a reminder, the kon is the rate constant with which the complex forms.

Experiment [1] deals with human PD-L1 protein on HEK293 cell (human) (UniProt Q9NZQ7). Briefly: FACS blocking assay: antibody titrated against Biotin-PD-1-mFc on HEK293-hPD-L1 cells, SA488 detection.
Experiment [2] concerns the target monkey PD-L1 protein on CHOK1 cell (monkey (cyno)). Briefly: FACS blocking assay: antibody titrated against Biotin-PD-1-mFc on CHOK1-cynoPD-L1 cells, SA488 detection.
For experiment [3], the target named is human PD-L1 (Acro, Catalog Number: H5229) (human) (UniProt Q9NZQ7). Briefly: BLI, Octet RED96e, antibody on AHC sensor, antigen 100 nM, 1:1 fit. In general terms: BLI is a label-free optical method that tracks binding on a fibre tip over time.
Chain of human PD-L1 (Acro, Catalog Number: H5229) (human) (Q9NZQ7 19-238 limits assumed): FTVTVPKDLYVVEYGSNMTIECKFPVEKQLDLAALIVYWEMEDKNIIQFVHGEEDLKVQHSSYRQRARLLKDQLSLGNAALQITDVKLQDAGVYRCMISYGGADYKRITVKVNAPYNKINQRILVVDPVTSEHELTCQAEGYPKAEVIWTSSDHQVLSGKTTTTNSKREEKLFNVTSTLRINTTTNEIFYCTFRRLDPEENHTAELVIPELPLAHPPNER

Chain of human PD-L1 protein on HEK293 cell (human) (Q9NZQ7 19-290): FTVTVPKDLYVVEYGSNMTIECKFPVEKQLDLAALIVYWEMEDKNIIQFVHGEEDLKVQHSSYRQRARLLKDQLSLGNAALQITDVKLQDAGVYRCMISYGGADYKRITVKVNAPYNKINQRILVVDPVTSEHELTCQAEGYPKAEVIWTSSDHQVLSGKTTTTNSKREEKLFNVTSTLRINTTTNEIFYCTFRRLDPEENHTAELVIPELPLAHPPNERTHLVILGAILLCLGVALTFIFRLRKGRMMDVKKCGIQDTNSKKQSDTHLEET

Substance Atezolimumab (antibody) gave an IC50 (read off the curve) in experiment [1] of 0.08 µg/mL. This substance gave an IC50 (read off the curve) in experiment [2] of 0.9 µg/mL. In experiment [3], the dissociation constant (Kd) came to 484 pM, the koff stood at 0.000311 s⁻¹ and the on-rate (kon) was 644000 M⁻¹ s⁻¹.
